Source: patent US20230018888A1
Where a chain is given by its changes, count along the chain named.

B1: anti-ADGRE2 scFv E (scFv, part only; not given: VH-VL linker, V domains shown, not shown: another chain or arm of the molecule; small tags and cut ends)
VH: QVQLQQSGAEVKKPGASVKVSCKASGYTFTNYWMQWVRQAPGQGLEWIGAVYPGDGDTRHTQKFKGRVTMTADKSTSTVYMELSSLRSEDTAVYYCARGFTAYGMDYWGQGTLVTVSS
VL: QIVLTQSPATLSLSPGERATLTCSASSSVSYMHWYQQKPGLSPKRWIYDTSKLASGVPDRFSGSGSGTDYTFTIRRLEPEDFATYYCQQWSSNPLTFGQGTKVEIK
B2: anti-ADGRE2 scFv M (scFv, part only; not given: VH-VL linker, V domains shown, not shown: another chain or arm of the molecule; small tags and cut ends)
VH: B1 VH with V20L, V37I, H60Y, K65Q, V68A, M70L, K74T, V79A, L83V, L113T
VL: EIVLTQSPATLSASPGERVTMSCSASSSVSYMHWYQQKPGLAPRRWIYDTSKLASGVPDRFSGSGSGTDYTFTISRMEPEDFATYYCQQWSSNPLTFGGGTKLEIK

Target: Adhesion G Protein-coupled Receptor E2 (ADGRE2), overexpressed on murine lymphoma EL4 cells (human) (UniProt Q9UHX3)
Experiment: flow cytometry, scFv titrated on EL4 cells overexpressing ADGRE2

UniProt Q9UHX3, sequence (Q9UHX3 24-823): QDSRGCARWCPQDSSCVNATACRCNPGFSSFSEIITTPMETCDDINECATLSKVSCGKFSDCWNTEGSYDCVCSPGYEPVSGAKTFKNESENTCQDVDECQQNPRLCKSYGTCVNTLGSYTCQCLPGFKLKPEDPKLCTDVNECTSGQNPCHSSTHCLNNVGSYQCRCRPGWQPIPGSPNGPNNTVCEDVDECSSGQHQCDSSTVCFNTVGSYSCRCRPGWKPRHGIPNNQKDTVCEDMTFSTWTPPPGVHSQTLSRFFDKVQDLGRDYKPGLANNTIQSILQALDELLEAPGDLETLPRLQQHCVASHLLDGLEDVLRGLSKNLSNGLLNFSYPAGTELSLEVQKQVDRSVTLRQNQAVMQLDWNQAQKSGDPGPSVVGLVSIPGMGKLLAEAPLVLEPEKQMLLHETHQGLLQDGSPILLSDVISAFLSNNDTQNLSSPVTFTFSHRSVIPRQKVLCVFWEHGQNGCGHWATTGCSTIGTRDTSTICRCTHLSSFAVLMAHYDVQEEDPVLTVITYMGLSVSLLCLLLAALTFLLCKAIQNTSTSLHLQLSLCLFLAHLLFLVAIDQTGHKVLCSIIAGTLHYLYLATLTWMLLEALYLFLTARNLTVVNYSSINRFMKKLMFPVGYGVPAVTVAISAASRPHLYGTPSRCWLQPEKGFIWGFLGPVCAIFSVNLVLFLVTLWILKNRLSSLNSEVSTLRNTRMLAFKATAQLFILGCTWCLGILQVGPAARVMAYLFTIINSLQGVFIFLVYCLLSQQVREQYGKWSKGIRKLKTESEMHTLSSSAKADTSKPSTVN

Row | Binder | EC50 [nM]
1 | B1 | 10.6
2 | B2 | 16.4
